# Experimental data from the supplement of paper PMC10567573.
# B1: KLHL12 (parent)
# chain: SMTTPRCYVGATVLRGRLYAIAGY
# B2: BRF1 (parent)
# chain: FVESSGGGSSAVGQFVSLDGAGKT
# Variants of: B1
# Assay: protein stability index of a GFP-peptide fusion (GPS, HEK-293T) (PSI 1-6); higher = more stable
# Conditions: c terminus: a fixed tail appended
# 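Further: lentivirally expressed fusions sorted by FACS into six bins by GFP to DsRed ratio, PSI derived from sequencing read proportions per bin multiplied by bin number.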
row,Variant,protein stability index
1,SMTTPRCYVGATVLRGRLYAIAGL [Y24L],2.46
2,SMTTPRCYVGATVLRGRLYAIAGM [Y24M],3.33
3,SMTTPRCYVGATVLRGRLYAIAGN [Y24N],1.75
4,SMTTPRCYVGATVLRGRLYAIAGP [Y24P],2.64
5,SMTTPRCYVGATVLRGRLYAIAGQ [Y24Q],2.45
6,SMTTPRCYVGATVLRGRLYAIAGR [Y24R],1.95
7,SMTTPRCYVGATVLRGRLYAIAGS [Y24S],1.27
8,SMTTPRCYVGATVLRGRLYAIAGT [Y24T],1.82
9,SMTTPRCYVGATVLRGRLYAIAGW [Y24W],2.45

# Variants of: B2
# Assay: as above
# Conditions: c terminus: a fixed tail appended
row,Variant,protein stability index
1,AVESSGGGSSAVGQFVSLDGAGKT [F1A],4.71
2,CVESSGGGSSAVGQFVSLDGAGKT [F1C],4.65
3,DVESSGGGSSAVGQFVSLDGAGKT [F1D],5.32
4,EVESSGGGSSAVGQFVSLDGAGKT [F1E],5.04
5,GVESSGGGSSAVGQFVSLDGAGKT [F1G],5.26
6,HVESSGGGSSAVGQFVSLDGAGKT [F1H],4.71
7,IVESSGGGSSAVGQFVSLDGAGKT [F1I],4.34
8,KVESSGGGSSAVGQFVSLDGAGKT [F1K],4.59
9,LVESSGGGSSAVGQFVSLDGAGKT [F1L],4.89
10,MVESSGGGSSAVGQFVSLDGAGKT [F1M],4.99
11,NVESSGGGSSAVGQFVSLDGAGKT [F1N],5.17
12,PVESSGGGSSAVGQFVSLDGAGKT [F1P],5.24
13,QVESSGGGSSAVGQFVSLDGAGKT [F1Q],5.13
14,RVESSGGGSSAVGQFVSLDGAGKT [F1R],5
15,SVESSGGGSSAVGQFVSLDGAGKT [F1S],5.15
16,TVESSGGGSSAVGQFVSLDGAGKT [F1T],5.09
17,VVESSGGGSSAVGQFVSLDGAGKT [F1V],4.82
18,WVESSGGGSSAVGQFVSLDGAGKT [F1W],3.88
19,YVESSGGGSSAVGQFVSLDGAGKT [F1Y],2.75

row,Variant,protein stability index
1,FAESSGGGSSAVGQFVSLDGAGKT [V2A],3.78
2,FCESSGGGSSAVGQFVSLDGAGKT [V2C],3.96
3,FDESSGGGSSAVGQFVSLDGAGKT [V2D],5.17
4,FEESSGGGSSAVGQFVSLDGAGKT [V2E],5.33
5,FFESSGGGSSAVGQFVSLDGAGKT [V2F],4.2
6,FGESSGGGSSAVGQFVSLDGAGKT [V2G],4.36
7,FHESSGGGSSAVGQFVSLDGAGKT [V2H],3.87
8,FIESSGGGSSAVGQFVSLDGAGKT [V2I],3.22
9,FKESSGGGSSAVGQFVSLDGAGKT [V2K],4.25
10,FLESSGGGSSAVGQFVSLDGAGKT [V2L],4.72
11,FMESSGGGSSAVGQFVSLDGAGKT [V2M],4.49
12,FNESSGGGSSAVGQFVSLDGAGKT [V2N],4.94
13,FPESSGGGSSAVGQFVSLDGAGKT [V2P],4.97
14,FQESSGGGSSAVGQFVSLDGAGKT [V2Q],4.12
15,FRESSGGGSSAVGQFVSLDGAGKT [V2R],4.44
16,FSESSGGGSSAVGQFVSLDGAGKT [V2S],4.35
17,FTESSGGGSSAVGQFVSLDGAGKT [V2T],4.76
18,FWESSGGGSSAVGQFVSLDGAGKT [V2W],4.01
19,FYESSGGGSSAVGQFVSLDGAGKT [V2Y],4.16
